Key:
Type in all cases: in vivo, human
Hodgkin's disease = experiment: Clinical monotherapy of rhTNFm1, Hodgkin's disease; conditions: for Efficacy CR / Efficacy MR / Efficacy PD / Efficacy PR / Efficacy SD: patient count
Text: (§1) Patients were selected based on the following criteria: i) measurable, objective tumor; ii) Karnofsky performance status (KPS)≧60; iii) age 18-75; iv) major organs in basically normal condition; v) no chemotherapy, radiotherapy and biologic therapy within the last month; vi) predicted ≧3 mon. survival; and vii) with patient's informed consent signed.
(§2) Patients were excluded based on the following criteria: i) with history of allergic reactions to TNF or its derivatives; ii) pregnant or lactating women; iii) major organs with obvious damages or malfunction; iv) in ≧38° C. fever; v) with obvious tendency to haemorrhage; vi) with history of hypo- or hypertension; vii) with serious albuminemia; and viii) with strong tendency of disobedience or resistance.
(§3) Patients were removed from the evaluation if any of the following conditions apply: i) treatment was not completed according to the protocol; ii) incomplete records; and iii) treatment using cancer therapies not in the protocol. However, patients who withdrew due to adverse reactions to the therapy were still included in the evaluation.
(§4) The results of the treatment of tumors were evaluated based the following criteria: i) complete response (CR)—complete disappearance of observable pathological changes for at least 4 weeks; ii) partial response (PR)—reduction by ≧50% in tumor size measured by the product of the maximum circular and vertical dimensions for at least 4 weeks; iii) minimum response (MR)—reduction by >25% but <50% in tumor size measured by the product of the maximum circular and vertical dimensions for at least 4 weeks; iv) stabilized (SD)—reduction by ≦25% but without increase by >25% in tumor size measured by the product of the maximum circular and vertical dimensions for at least 4 weeks; and progression (PD): increase by >25% in tumor size in one or more sites.
(§5) Patients rested on day 1 and 2. The treatment cycle was 3-4 weeks.
(§6) Table II summaries results of the treatment of patients with malignant lymphoma, classified according to Hodgkin's disease and non-Hodgkin's lymphoma. Within each of category of lymphoma, patients were further classified into two groups: chemo-naïve and chemo-refractory. The chemo-naïve patients were patients who had never been treated with any anti-cancer agent previously whereas chemo-refractory patients were ones who failed treatment with one or more anti-cancer agent.

Kidney Cancer = experiment: Clinical monotherapy of rhTNFm1, kidney cancer; conditions: 3 patients
Text: as §1, §2, §3, §4, §5

[1] = system: malignant pleural effusion; experiment: Clinical monotherapy of rhTNFm1, malignant pleural effusion; conditions: 141 patients
Text: as §1, §2, §3
(§7) The results of the treatment of malignant pleural effusion (or hydrothorax) and ascites were evaluated based on a modified Millar standard (Millar J W, Hunfer A M, Home N W. (1980) “Inerapleural immunotherapy with CP”, in Recurrent Malignant Pleural Effusions. Thorax 35:856): i) complete response (CR)—complete disappearance of pleural effusion or ascites for at least 1 month; ii) partial response (PR)—reduction by at least 1 grade for at least 1 month; iii) minimum response (MR)—reduction in the levels of pleural effusion or ascites within the same grade for at least 1 month; iv) stabilized (SD)—levels of pleural effusion or ascites maintained within the same grade for at least 1 month; and progressed (PD): increase in the levels of pleural effusion or ascites compared with those before the treatment.
as §5
(§8) It is noted that Table III includes the patients who withdrew due to […], including 1 with malignant pleural effusion and 1 with malignant ascites. For patients with malignant ascites, rhTNFm1 was reconstituted in 30-50 ml normal saline and administered intraperitoneally (i.p.) at 2,000,000-3,000,000 units each time, 1-2 times a week, with 2-3 weeks as one treatment cycle. Optionally, rhTNFm1 was administered to the patients by alternating between i.p. injection and i.v. injection (at 600,000-900,000 unit/m^2 per day continuing for 28 days as one treatment cycle). On the day when rhTNFm1 was administered via i.p. injection, administration of rhTNFm1 via i.v. injection was stopped.

Malignant melanoma = experiment: Clinical monotherapy of rhTNFm1, malignant melanoma; conditions: 18 patients
Text: as §1, §2, §3, §4, §5

Malignant Lymphoma = experiment: Clinical monotherapy of rhTNFm1, malignant lymphoma; conditions: 71 patients
Text: as §1, §2, §3, §4, §5, §6

malignant ascites = experiment: Clinical monotherapy of rhTNFm1, malignant ascites; conditions: 28 patients, monotherapy i.p.
Text: as §1, §2, §3, §7, §8

[2] = Chemo-naïve Grade I & II, 0 patients
[3] = Chemo-naïve Grade III & IV, 0 patients

B1: rhTNFm1: Recombinant human TNF-α mutant 1 expressed in E. coli; SEQ ID NO: 3 with N-terminal methionine (FIG. 1, 2) (protein)
chain: MRKRKPVAHVVANPQAEGQLQWLNRRANALLANGVELRDNQLVVPSEGLYLIYSQVLFKGQGCPSTHVLLTHTISRIAVSYQTKVNLLSAIKSPCQRETPEGAEAKPWYEPIYLGGVFQLEKGDRLSAEINRPDYLDFAESGQVYFGIIAQ
modifications: rhTNFm1 with Met
Hodgkin's disease; [2]
  Response Rate (%) CR: 0%
  Response Rate (%) CR + PR: 0%
  Response Rate (%) PR: 0%
  Efficacy CR: 0
  Efficacy MR: 0
  Efficacy PD: 0
  Efficacy PR: 0
  Efficacy SD: 0
Hodgkin's disease; [3]
  Response Rate (%) CR: 0%
  Response Rate (%) CR + PR: 0%
  Response Rate (%) PR: 0%
  Efficacy CR: 0
  Efficacy MR: 0
  Efficacy PD: 0
  Efficacy PR: 0
  Efficacy SD: 0
Hodgkin's disease; Chemo-naïve Total, 0 patients
  Response Rate (%) CR: 0%
  Response Rate (%) CR + PR: 0%
  Response Rate (%) PR: 0%
  Efficacy CR: 0
  Efficacy MR: 0
  Efficacy PD: 0
  Efficacy PR: 0
  Efficacy SD: 0
Hodgkin's disease; Chemo-refractory, 6 patients
  Response Rate (%) CR: 0%
  Response Rate (%) CR + PR: 0%
  Response Rate (%) PR: 0%
  Efficacy CR: 0
  Efficacy MR: 0
  Efficacy PD: 1
  Efficacy PR: 0
  Efficacy SD: 5
Kidney Cancer
  Response Rate (%) CR: 0.00%
  Response Rate (%) CR + PR: 0.00%
  Response Rate (%) PR: 0.00%
Kidney Cancer; patient count
  Efficacy CR: 0
  Efficacy MR: 1
  Efficacy PD: 1
  Efficacy PR: 0
  Efficacy SD: 1
[1]
  Response Rate (%) CR: 9.93%
  Response Rate (%) PR: 64.54%
[1]; patient count
  Efficacy CR: 14
  Efficacy MR: 9
  Efficacy PD: 1
  Efficacy PR: 91
  Efficacy SD: 26
Malignant melanoma
  Response Rate (%) CR: 0.00%
  Response Rate (%) CR + PR: 11.11%
  Response Rate (%) PR: 11.11%
Malignant melanoma; patient count
  Efficacy CR: 0
  Efficacy MR: 3
  Efficacy PD: 3
  Efficacy PR: 2
  Efficacy SD: 10
Malignant Lymphoma
  Response Rate (%) CR: 2.82%
  Response Rate (%) CR + PR: 28.17%
  Response Rate (%) PR: 25.35%
Malignant Lymphoma; patient count
  Efficacy CR: 2
  Efficacy MR: 8
  Efficacy PD: 11
  Efficacy PR: 18
  Efficacy SD: 32
Malignant ascites
  Response Rate (%) CR: 3.57%
  Response Rate (%) CR + PR: 42.86%
  Response Rate (%) PR: 39.29%
Malignant ascites; patient count
  Efficacy CR: 1
  Efficacy MR: 3
  Efficacy PD: 1
  Efficacy PR: 11
  Efficacy SD: 12

Source: US20060263331A1, “Therapeutic use of tumor necrosis factor-alpha mutein” (priority 2002, published 2006)
